The source of these data is paper PMC5120205.

For one test, the target named is D1-10-N1. In words: ELISA.
The target of the next test is D2-14-N1. Briefly: ELISA.
A further test deals with D3-03-N1. Briefly: ELISA.
Another test concerns the target D3-12-N1. In words: ELISA.
Another test addresses D3-23-N1. In words: ELISA.
The next test concerns the target D3-24-N1. Briefly: ELISA.
The next test addresses D2-14-N1 (human). Briefly: SPR.

Chain of D2-14-N1 (human) (heavy, as listed by the source): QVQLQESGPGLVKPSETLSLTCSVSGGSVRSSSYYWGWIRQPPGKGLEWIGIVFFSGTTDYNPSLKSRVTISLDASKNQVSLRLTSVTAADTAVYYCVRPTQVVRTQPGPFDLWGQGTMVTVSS

For “recombinant full-length IsdB (from UniProt Q2FHV2) Y165R”, the percent of parent amounted to 3% with D1-10-N1; 3% with D2-14-N1; 3% with D3-03-N1; 3% with D3-12-N1; 3% with D3-23-N1; 5% with D3-24-N1.
“recombinant full-length IsdB (natural protein)”: in the test with D2-14-N1 (human), the Kd was 4 to 12 pM.
